Experiment [1] deals with mouse primary cortical neurons. As to the kind of experiment: Neurite growth of primary cortical neurons (beta-tubulin III immunostaining). The format is cell-based. The following applies: 0.006 to 60 nM; day 3 post-initial culture; versus DMSO control. As to the method:
Next, primary cortical neurons (day 1 postnatal) were cultured in vitro with varying concentrations (0.006 to 60 nM) of the LRRC4B (453-576) protein fragment (i.e., amino acid residues 453-576 of SEQ ID NO: 2; SEQ ID NO: 7), and then at day 3 post-initial culture, the effect on neurite growth was assessed by immunostaining the cells with anti-beta-tubulin III antibody. Cells cultured with DMSO (“Veh”) were used as control.
Mouse hippocampal neurons were treated with LRRC4B peptides at 1 and 2 DIV to determine neurite growth. It was measured by using 3 different parameters, which are total neurites length, number of primary and secondary neurites. After the neurons were stained with beta-tubulin III at 3 DIV, neurites length and branch points were measured using Fiji (Image J, NIH, Bethesda). Individual neurons were selected by hand and these parameters were counted using the Simple neurite tracer plugin. Mouse spinal motor neurons sampled at postnatal day 1 were treated with 10 nM of NS101 and LRRC4B-peptides (dFB-dWY-JM31 and dFB-DY-JM31) at 1 and 2 DIV and immunostained with Tau-5 antibody at 3 DIV. Total neurite length and number of somas in images were measured by Neurphology Image J plugin.

Experiment [2] has as its target FAM19A5 protein (Homo sapiens, UniProt Q7Z5A7). As to the kind of experiment: Co-immunoprecipitation of FLAG-tagged LRRC4 family constructs with recombinant FAM19A5 in HEK293 cells. The class given is binding. As to conditions: HEK293 cells expressing FLAG-tagged construct, recombinant FAM19A5 protein (1 μM) 30 minutes; anti-FLAG immunoprecipitation. As to the method: To better understand the interaction between FAM19A5 and members of the LRRC4 protein family, HEK293 cells were modified to express a FLAG-tagged member of the LRRC4 protein family, i.e., LRRC4C protein, LRRC4 protein, or LRRC4B protein. Then, the HEK293 cells or primary cortical neurons were treated with recombinant FAM19A5 protein (1 μM) for 30 minutes, and the binding between FAM19A5 protein and the different members of the LRRC4 protein family was assessed using both co-immunoprecipitation and immunofluorescence assays.
For the co-immunoprecipitation assay, cell lysates from the different FAM19A5-treated HEK293 cells were collected and immunoprecipitated with an anti-FLAG antibody, anti-FAM19A5 (1-65) antibody, or a human IgG antibody (control). Immunoprecipitated proteins were immunoblotted with anti-FLAG and anti-FAM19A5 (3-2) antibodies. For the immunofluorescence assay, the HEK293 cells treated with the recombinant FAM19A5 protein were immunostained with anti-FAM19A5 (3-2) (to detect FAM19A5 protein expression) and anti-FLAG antibodies (to detect member of the LRRC4 protein family). The primary cortical neurons treated with the recombinant FAM19A5 protein were immunostained with anti-FAM19A5 (3-2) and anti-LRRC4B antibodies. The nuclei were stained with Hoechst33342 (blue).
To determine the specific motif or domain of the LRRC4B protein that is responsible for the binding to a FAM19A5 protein, various FLAG-tagged LRRC4B deletion constructs were generated (see Table 6 below). HEK293 cells were transfected with the different deletion constructs and then treated with recombinant FAM19A5 protein as described in Example 1. Then, the cell lysates from the different HEK293 cells were immunoprecipitated with the anti-FLAG antibody. The immunoprecipitated proteins were immunoblotted with anti-FLAG and anti-FAM19A5 (3-2) antibodies.
As described in Example 2, all members of the LRRC4 protein family were capable of binding to FAM19A5 protein to varying degrees. Therefore, to compare the bindings domains, the amino acid sequences of the LRRC4B, LRRC4, and LRRC4C proteins were aligned. […] Therefore, to assess whether the corresponding positions of LRRC4 and LRRC4C were important in the binding of these proteins to FAM19A5 protein, cDNAs encoding either (i) LRRC4C protein fragment (amino acids 354-527 of SEQ ID NO: 3; SEQ ID NO: 66) or (ii) LRRC4 protein fragment (amino acids 353-527 of SEQ ID NO: 1; SEQ ID NO: 67) were constructed (see Table 7). HEK293 cells were transfected to express either of the protein fragments and then treated with recombinant FAM19A5 protein as described in Example 1. Then, the cell lysates from the different HEK293 cells were immunoprecipitated with the anti-FLAG antibody. The immunoprecipitated proteins were immunoblotted with anti-FLAG and anti-FAM19A5 (3-2) antibodies.

Experiment [3] deals with T1, FAM19A5 (isoform 2) - full-length LRRC4B protein complex (Homo sapiens, UniProt Q7Z5A7).
T1 construct: expressed in transfected cells; host or cells: HEK293
The experiment can be described thus: Immunofluorescence: dissociation of FAM19A5 from full-length LRRC4B in HEK293 cells. The format is cell-based. The following applies: HEK293 cells expressing FAM19A5 isoform 2 and LRRC4B, treated 30 minutes. As to the method:
Since LRRC4B protein fragments containing the binding domain described in Example 2 (e.g., LRRC4B (453-576); i.e., construct #11 in Table 6) was able to bind to FAM19A5 protein with high affinity, it was next assessed whether such protein fragments could compete with naturally existing LRRC4B protein for binding to FAM19A5 protein, and thereby, dissociate the FAM19A5-LRRC4 protein family complex. Briefly, HEK293 cells expressing both FAM19A5 isoform 2 and LRRC4B protein were treated (i.e., cultured in vitro) for 30 minutes with either LRRC4B (453-576)-hFc or mutant LRRC4B (453-576)-hFc (includes alanine substitutions at positions 488 and 489 of SEQ ID NO: 2; SEQ ID NO: 16) protein fragments. Then, the cells were immunostained with anti-FAM19A5 (1-65) and anti-LRRC4B antibodies to determine the expression of FAM19A5 and full-length LRRC4B proteins, respectively. The hFc-fused LRRC4B protein fragments were determined using an anti-hIgG antibody. The nuclei were stained with Hoechst 33342.

FAM19A5 protein, sequence (Q7Z5A7 44-132): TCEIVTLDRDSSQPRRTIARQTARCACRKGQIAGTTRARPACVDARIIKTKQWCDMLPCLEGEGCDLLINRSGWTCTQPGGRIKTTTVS
T1 sequence (Q7Z5A7 1-125 isoform Q7Z5A7-2, one chain of several): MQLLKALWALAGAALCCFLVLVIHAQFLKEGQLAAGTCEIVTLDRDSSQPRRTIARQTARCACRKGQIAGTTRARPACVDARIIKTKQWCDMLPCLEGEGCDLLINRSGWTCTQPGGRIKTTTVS

B1: LRRC4B (453-576): LRRC4B fragment, amino acids 453-576 of SEQ ID NO: 2 (SEQ ID NO: 7); used hFc-fused (protein)
chain: VSAVDPVAAGGTGSGGGGPGGSGGVGGGSGGYTYFTTVTVETLETQPGEEALQPRGTEKEPPGPTTDGVWGGGRPGDAAGPASSSTTAPAPRSSRPTEKAFTVPITDVTENALKDLDDVMKTTK
modifications: human Fc fusion in use
notes: used hFc-fused
Turning to B1, the neurite growth entry in experiment [1] is “increased neurite growth in a dose-dependent manner”. Also, the “binding to FAM19A5 protein (co-immunoprecipitation)” value in experiment [2] was “able to bind to the FAM19A5 protein”. Besides, the “dissociation of FAM19A5 from full-length LRRC4B protein” value in experiment [3] is “FAM19A5 was largely dissociated from the full-length LRRC4B protein”.

These data come from patent publication US20250333441A1, “POLYPEPTIDE INHIBITORS AND USES THEREOF” (Neuracle Science Co., Ltd., priority 2021, published 2025).
